In patent US20150259371A1, “METHODS AND COMPOUNDS FOR INHIBITING GLYCOSYLTRANSFERASES” (SIMON FRASER UNIVERSITY, priority 2010, published 2015):

Substrate: COc1ccc(O[C@H]2S[C@H](CO)[C@@H](O)[C@H](O)[C@H]2NC(C)=O)cc1
Assay: OGA kinetics, Michaelis-Menten hydrolysis of pMP glycosides
Assay type: biochemical, human
Details: other: 37° C., pH 7.4
Method: OGA kinetics: Synthesis and characterization of para-methoxyphenyl-5SGlcNAc is described in Example II. Kinetics were performed at 37° C. in PBS, pH 7.4 in a total volume of […]. Substrate concentrations of 25 μM to 1.5 mM were used for pMP-GlcNAc and 25 to 800 μM for pMP-5SGlcNAc. OGA (which was over-expressed and purified as described in Ref. ^42) was used at a concentration of 1 μM for pMP-GlcNAc and 3.6 μM for pMP-5SGlcNAc. Rates were monitored at a wavelength of 296 nm over the course of 10-20 min. Data were fit to the Michaelis-Menten equation in GRAFIT^41 and the kcat and KM values determined.

B1: OGA (Homo sapiens) (protein)
chain: MVQKESQATLEERESELSSNPAASAGASLEPPAAPAPGEDNPAGAGGAAVAGAAGGARRFLCGVVEGFYGRPWVMEQRKELFRRLQKWELNTYLYAPKDDYKHRMFWREMYSVEEAEQLMTLISAAREYEIEFIYAISPGLDITFSNPKEVSTLKRKLDQVSQFGCRSFALLFDDIDHNMCAADKEVFSSFAHAQVSITNEIYQYLGEPETFLFCPTEYCGTFCYPNVSQSPYLRTVGEKLLPGIEVLWTGPKVVSKEIPVESIEEVSKIIKRAPVIWDNIHANDYDQKRLFLGPYKGRSTELIPRLKGVLTNPNCEFEANYVAIHTLATWYKSNMNGVRKDVVMTDSEDSTVSIQIKLENEGSDEDIETDVLYSPQMALKLALTEWLQEFGVPHQYSSRQVAHSGAKASVVDGTPLVAAPSLNATTVVTTVYQEPIMSQGAALSGEPTTLTKEEEKKQPDEEPMDMVVEKQEETDHKNDNQILSEIVEAKMAEELKPMDTDKESIAESKSPEMSMQEDCISDIAPMQTDEQTNKEQFVPGPNEKPLYTAEPVTLEDLQLLADLFYLPYEHGPKGAQMLREFQWLRANSSVVSVNCKGKDSEKIEEWRSRAAKFEEMCGLVMGMFTRLSNCANRTILYDMYSYVWDIKSIMSMVKSFVQWLGCRSHSSAQFLIGDQEPWAFRGGLAGEFQRLLPIDGANDLFFQPPPLTPTSKVYTIRPYFPKDEASVYKICREMYDDGVGLPFQSQPDLIGDKLVGGLLSLSLDYCFVLEDEDGICGYALGTVDVTPFIKKCKISWIPFMQEKYTKPNGDKELSEAEKIMLSFHEEQEVLPETFLANFPSLIKMDIHKKVTDPSVAKSMMACLLSSLKANGSRGAFCEVRPDDKRILEFYSKLGCFEIAKMEGFPKDVVILGRSL
notes: made in house
With B1 the Km was 35 µM.
